Laboratory results: PMC2139828
Values belong to the substance of their own block, whether it stands above or below them.

Tests used:
Test in all cases: SDS-PAGE under nonreducing conditions
[1] = target: rFN(C), recombinant human fibronectin isoform lacking both EDA and EDB segments (human)
[2] = target: rFN(BAC), recombinant human fibronectin isoform containing both EDA and EDB segments (human)
[3] = target: rFN(AC), recombinant human fibronectin isoform containing EDA but lacking EDB (human)

- stoichiometry N [1]: 2
Substance: rFN(C), recombinant human fibronectin isoform lacking both EDA and EDB segments (natural protein)

- stoichiometry N [2]: 2
Substance: rFN(BAC), recombinant human fibronectin isoform containing both EDA and EDB segments (natural protein)

- stoichiometry N [3]: 2
Substance: rFN(AC), recombinant human fibronectin isoform containing EDA but lacking EDB (natural protein)
